The target of this assay is T1, wild-type p53 protein (UniProt P04637 1-393).
T1 construct: also called purified p53
The assay can be described thus: ELISA on plates coated with purified p53. The source says: The two IgGs are then visualized using a secondary anti-IgG antibody which is coupled to alkaline phosphatase. The biotinylated serum is visualized using extravidin which is coupled to alkaline phosphatase. The ScFvs are visualized using the anti-myc antibody 9E10 and then using an anti-IgG antibody which is coupled to alkaline phosphatase.

2 molecules from patent US6852509 (dated 2005) can be followed below.

T1 sequence (P04637 whole entry): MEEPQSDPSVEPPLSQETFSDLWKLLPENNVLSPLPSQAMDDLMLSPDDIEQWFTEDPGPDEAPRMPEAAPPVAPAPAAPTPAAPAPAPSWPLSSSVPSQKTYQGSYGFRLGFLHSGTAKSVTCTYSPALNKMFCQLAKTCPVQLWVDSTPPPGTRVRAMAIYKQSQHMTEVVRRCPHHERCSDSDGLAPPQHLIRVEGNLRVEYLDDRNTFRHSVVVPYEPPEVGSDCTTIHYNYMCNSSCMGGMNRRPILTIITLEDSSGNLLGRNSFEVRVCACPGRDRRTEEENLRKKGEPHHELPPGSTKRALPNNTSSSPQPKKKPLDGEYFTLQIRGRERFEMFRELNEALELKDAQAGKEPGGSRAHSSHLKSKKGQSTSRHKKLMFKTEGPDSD

B1: ScFv 421-myc (scFv)
scFv: QVQLQQSGAELVRSGASVKLSCTASGFNIKDYYMHWVKQRPEQGLEWIGWIDPENGDTEYAPKFQGKATMTADTSSNTAYLQLSSLASEDTAVYYCNFYGDALDYWGQGTTVTVSSGGGGSGGGGSGGGGSDVLMTQTPLTLSVTIGQPASISCKSSQSLLDSDGKTYLNWLLQRPGQSPKRLIYLVSKLDSGVPDRFTGSGSGTDFTLKINRVEAEDLGVYYCWQGTHSPLTFGAGTKLEIK
notes: Produced from bacterial periplasm; not shown: myc tag fused for detection
Turning to B1, the binding result is reported as “binds”.

B2: ScFv 11D3-myc (scFv)
scFv: QVKLQESGAELVRSGASVNLSCTASGFNIKDYYMHWVKQRPEEGLEWIGYIDPESGETEYAPNFQGKATVTADTSSNTAYLHLSSLTSEDTTVYYCNAVIYYEYDGYALDYWGQGTTVTVSSGGGGSGGGGSGGGGSDIELTQSPSSLAVSAGEKVAMSCKSSQSLFNSRTRKNYLAWYQQKPGQSPKVLIYWASTRESGVPDRFTGSGSGTDFTLTISSVQAEDLAVYYCKQSYNLPTFGGGTKLEIK
notes: Produced from bacterial periplasm; also called 11D3 ScFv; D3M ScFv; not shown: myc tag fused for detection
Turning to B2, the binding result is reported as “binds”.
